Measurements published in paper PMC9807522 (Cancer Science, 2022).

Tests used:
[1] = target: VEGFR2 on VEGFR2 overexpressing 293FT cells (Homo sapiens (assumed), UniProt P35968); assay: cell-based or functional assay
[2] = target: recombinant rhesus macaque VEGFR2‐His protein (Macaca mulatta, UniProt F7E313); assay: ELISA
[3] = target: recombinant human VEGFR2 protein (Octet) (Homo sapiens, UniProt P35968); assay: BLI
Chain of recombinant human VEGFR2 protein (Octet) (P35968 20-1356): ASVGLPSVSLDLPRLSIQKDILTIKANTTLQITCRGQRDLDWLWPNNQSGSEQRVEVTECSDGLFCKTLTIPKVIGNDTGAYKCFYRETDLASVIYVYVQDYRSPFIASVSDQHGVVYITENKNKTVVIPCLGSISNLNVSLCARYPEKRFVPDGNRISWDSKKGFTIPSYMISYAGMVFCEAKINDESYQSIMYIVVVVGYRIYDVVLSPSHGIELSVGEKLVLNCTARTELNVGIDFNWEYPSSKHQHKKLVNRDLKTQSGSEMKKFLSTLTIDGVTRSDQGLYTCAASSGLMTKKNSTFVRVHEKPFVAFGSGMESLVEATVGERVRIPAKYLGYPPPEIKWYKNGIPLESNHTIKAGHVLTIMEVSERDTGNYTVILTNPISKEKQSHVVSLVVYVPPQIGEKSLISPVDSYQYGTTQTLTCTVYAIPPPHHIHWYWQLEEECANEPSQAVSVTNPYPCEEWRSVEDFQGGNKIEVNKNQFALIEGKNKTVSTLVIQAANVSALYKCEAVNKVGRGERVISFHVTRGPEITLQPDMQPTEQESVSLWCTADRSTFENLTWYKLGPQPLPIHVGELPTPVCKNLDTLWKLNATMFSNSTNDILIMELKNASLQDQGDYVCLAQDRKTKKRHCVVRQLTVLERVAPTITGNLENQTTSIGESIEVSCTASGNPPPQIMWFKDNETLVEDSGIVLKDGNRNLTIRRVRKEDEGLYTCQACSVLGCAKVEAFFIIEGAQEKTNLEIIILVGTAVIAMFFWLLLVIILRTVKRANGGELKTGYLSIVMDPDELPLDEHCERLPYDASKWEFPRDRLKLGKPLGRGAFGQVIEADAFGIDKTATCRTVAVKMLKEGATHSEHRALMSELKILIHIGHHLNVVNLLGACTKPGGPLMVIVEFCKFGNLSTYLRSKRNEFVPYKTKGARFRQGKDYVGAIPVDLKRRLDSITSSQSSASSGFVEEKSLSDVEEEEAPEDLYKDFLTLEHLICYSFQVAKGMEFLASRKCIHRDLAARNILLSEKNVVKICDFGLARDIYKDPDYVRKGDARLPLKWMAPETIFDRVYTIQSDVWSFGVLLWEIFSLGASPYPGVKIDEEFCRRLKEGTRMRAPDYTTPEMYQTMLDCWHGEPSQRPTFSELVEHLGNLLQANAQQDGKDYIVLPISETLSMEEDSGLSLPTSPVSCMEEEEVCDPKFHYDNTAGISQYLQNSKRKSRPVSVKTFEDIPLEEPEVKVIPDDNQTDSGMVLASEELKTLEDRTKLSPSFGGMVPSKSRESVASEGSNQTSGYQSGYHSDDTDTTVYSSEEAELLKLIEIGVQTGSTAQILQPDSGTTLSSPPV

Chain of VEGFR2 on VEGFR2 overexpressing 293FT cells (P35968 20-1356): as above

B1: ramucirumab (antibody, V domains shown)
VH: EVQLVQSGGGLVKPGGSLRLSCAASGFTFSSYSMNWVRQAPGKGLEWVSSISSSSSYIYYADSVKGRFTISRDNAKNSLYLQMNSLRAEDTAVYYCARVTDAFDIWGQGTMVTVSS
VL: DIQMTQSPSSVSASIGDRVTITCRASQGIDNWLGWYQQKPGKAPKLLIYDASNLDTGVPSRFSGSGSGTYFTLTISSLQAEDFAVYFCQQAKAFPPTFGGGTKVDIK
EC50 of neutralisation of HUVEC proliferation induced by human VEGF-C [1]: 0.0874 µg/mL | EC50 of neutralisation of HUVEC proliferation induced by human VEGF-C+VEGF-D [1]: 0.086 µg/mL | binding result [2]: binds | Kd [3]: 0.0458 nM
